Assay results from IntAct's records for PubMed 29276004.

B1: Rho-related BTB domain-containing protein 2 (Homo sapiens), Q9BYZ6-2 (parent)
chain: MQAWRKGPDGPQKTSSDSMSRLMDSDMDYERPNVETIKCVVVGDNAVGKTRLICARACNATLTQYQLLATHVPTVWAIDQYRVCQEVLERSRDVVDDVSVSLRLWDTFGDHHKDRRFAYGRSDVVVLCFSIANPNSLHHVKTMWYPEIKHFCPRAPVILVGCQLDLRYADLEAVNRARRPLARPIKPNEILPPEKGREVAKELGIPYYETSVVAQFGIKDVFDNAIRAALISRRHLQFWKSHLRNVQRPLLQAPFLPPKPPPPIIVVPDPPSSSEECPAHLLEDPLCADVILVLQERVRIFAHKIYLSTSSSKFYDLFLMDLSEGELGGPSEPGGTHPEDHQGHSDQHHHHHHHHHGRDFLLRAASFDVCESVDEAGGSGPAGLRASTSDGILRGNGTGYLPGRGRVLSSWSRAFVSIQEEMAEDPLTYKSRLMVVVKMDSSIQPGPFRAVLKYLYTGELDENERDLMHIAHIAELLEVFDLRMMVANILNNEAFMNQEITKAFHVRRTNRVKECLAKGTFSDVTFILDDGTISAHKPLLISSCDWMAAMFGGPFVESSTREVVFPYTSKSCMRAVLEYLYTGMFTSSPDLDDMKLIILANRLCLPHLVALTEQYTVTGLMEATQMMVDIDGDVLVFLELAQFHCAYQLADWCLHHICTNYNNVCRKFPRDMKAMSPENQEYFEKHRWPPVWYLKEEDHYQRARKEREKEDYLHLKRQPKRRWLFWNSPSSPSSSAASSSSPSSSSAVV

Variants of: B1
Details: with cul3_human CUL3, Q13618

Effect of a mutation on the interaction, with no effect:
R511Q
A474G
R483H
